Measurements from patent US10006080B2, “High-selectivity contact activation inhibitor based on infestin-4” (OBSCHESTVO S OGRANICHENNOY OTVETSTVENNOSTYU …, priority 2013, dated 2018).
Blank lines part the entries; values can stand above or below the molecule they belong to.

Assays:
fXIIa = target: T1, fXIIa (Homo sapiens, UniProt P00748); assay: Chromogenic test of protease inhibition in buffer, fXIIa (substrate S-2302); assay type: biochemical; details: versus fXIa, fXa, aPC; Table 2
T1 construct: it can be transformed into an active protease, factor XIIa (fXIIa)
Description: (§1) In order to assess selectivity of the fXIIa inhibition by the polypeptide comprising the sequence of the infestin-4 mutant MutB, its inhibitory activity in buffer solution against the purified coagulation factors was determined. The polypeptide's activity was compared with the known fXIIa inhibitors: CTI, infestin-4, infestin-4-based mutant Mut15, LCTI-III. […] The standard deviation amounted to about 50% of the average value; each value was measured by performing 2-3 repeats.
(§2) To determine the inhibition activity of such proteins as MutB, CTI, Inf4, Mut15, and LCTI-III as related to different coagulation proteases in a buffer, the chromogenic test was used: the mixture of protease and inhibitor was incubated in the wells of the plate for 15 minutes at 37° C., after which the chromogenic substrate solution was added to the mixture, and the protease activity was measured as the rate of chromogenic product formation at 37° C.
(§3) Chromogenic substrates included a p-nitroanilide group cleaved by the corresponding proteases. After cleavage of the p-nitroanilide group from the substrate molecule, the group absorption spectrum changes, and the change of concentration of such product within time can be detected at the light wavelength of 405 nm using a plate spectrophotometer. […]

fXa = fXa (Homo sapiens, UniProt P00742); assay: Chromogenic test of protease inhibition in buffer, fXa (substrate S-2765); assay type: biochemical; details: buffer solution, summary of Table 2
Description: as §1, §2, §3

aPC = aPC (Homo sapiens, UniProt P04070); assay: Chromogenic test of protease inhibition in buffer, aPC (substrate Spectrozyme pCa); assay type: biochemical; details: buffer solution, summary of Table 2
Description: as §1, §2, §3

fibrinolysis = details: supposedly by inhibiting the tissue activator of plasminogen; cited from earlier work
factor XIIa = target: T2, factor XIIa (UniProt P00748 20-615, limits assumed); assay: chromogenic test (S-2302), IC50 converted by Cheng-Prusoff
T2 construct: also called fXIIa
T2 sequence (looked up): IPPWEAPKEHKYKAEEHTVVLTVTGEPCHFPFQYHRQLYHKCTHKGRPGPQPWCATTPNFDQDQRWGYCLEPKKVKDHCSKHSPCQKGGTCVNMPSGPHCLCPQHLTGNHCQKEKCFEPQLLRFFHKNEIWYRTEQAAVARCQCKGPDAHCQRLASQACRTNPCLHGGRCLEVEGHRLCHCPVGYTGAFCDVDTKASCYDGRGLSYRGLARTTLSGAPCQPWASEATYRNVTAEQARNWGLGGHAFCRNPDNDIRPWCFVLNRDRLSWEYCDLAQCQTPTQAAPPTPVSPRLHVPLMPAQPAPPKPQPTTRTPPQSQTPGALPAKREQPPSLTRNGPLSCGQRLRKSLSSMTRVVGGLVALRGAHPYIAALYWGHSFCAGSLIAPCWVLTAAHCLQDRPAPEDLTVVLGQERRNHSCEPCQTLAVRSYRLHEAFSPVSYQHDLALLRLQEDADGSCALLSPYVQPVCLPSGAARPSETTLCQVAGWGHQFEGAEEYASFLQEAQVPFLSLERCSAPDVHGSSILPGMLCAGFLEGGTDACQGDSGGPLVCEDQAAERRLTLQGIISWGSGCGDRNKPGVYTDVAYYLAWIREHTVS
Description: as §2
(§4) Chromogenic substrates included a p-nitroanilide group cleaved by the corresponding proteases. After cleavage of the p-nitroanilide group from the substrate molecule, the group absorption spectrum changes, and the change of concentration of such product within time can be detected at the light wavelength of 405 nm using a plate spectrophotometer. To build a dependence curve of the protease activity from the inhibitor concentration, different inhibitor concentrations were added into several samples with the same protease concentration. After that, the inhibitor concentration able to decrease the protease activity by 50% (IC50) was determined. The inhibition constant Ki was calculated using the Cheng-Prusoff equation (Ki=IC50/(1+S/KM)), where S is the initial substrate concentration, KM is the Michaelis-Menten constant of the substrate to the protease.

activated protein C = target: T3, activated protein C (UniProt P04070 43-197; P04070 212-461); assay: chromogenic test (Spectrozyme pCa), IC50 converted by Cheng-Prusoff
T3 construct: also called aPC
Description: as §2, §4

aPC, sequence (P04070 212-450 limits assumed): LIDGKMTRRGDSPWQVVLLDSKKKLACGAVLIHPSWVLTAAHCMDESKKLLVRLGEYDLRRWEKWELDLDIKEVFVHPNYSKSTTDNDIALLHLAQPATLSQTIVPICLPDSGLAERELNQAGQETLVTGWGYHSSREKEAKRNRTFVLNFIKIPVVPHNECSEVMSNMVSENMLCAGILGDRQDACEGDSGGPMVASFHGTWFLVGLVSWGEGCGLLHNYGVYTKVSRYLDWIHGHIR
aPC, sequence (P04070 43-197 partner limits assumed): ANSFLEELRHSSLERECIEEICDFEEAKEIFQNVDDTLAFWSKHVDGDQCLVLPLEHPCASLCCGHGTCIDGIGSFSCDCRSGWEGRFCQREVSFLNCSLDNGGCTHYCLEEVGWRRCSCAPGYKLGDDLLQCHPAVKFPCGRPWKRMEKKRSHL
T3 sequence (P04070 43-197, form in doubt, chain 1 of 2): as the sequence (P04070 43-197 partner limits assumed) above
T3 sequence (P04070 212-461, form in doubt, chain 2 of 2): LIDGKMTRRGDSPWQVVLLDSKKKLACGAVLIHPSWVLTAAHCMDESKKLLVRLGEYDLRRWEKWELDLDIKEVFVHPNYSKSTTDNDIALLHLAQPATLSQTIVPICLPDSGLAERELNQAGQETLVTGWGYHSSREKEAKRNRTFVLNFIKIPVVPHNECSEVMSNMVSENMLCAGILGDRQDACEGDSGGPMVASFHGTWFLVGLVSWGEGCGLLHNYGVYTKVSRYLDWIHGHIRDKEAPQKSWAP
fXa, sequence (P00742 235-488 limits assumed): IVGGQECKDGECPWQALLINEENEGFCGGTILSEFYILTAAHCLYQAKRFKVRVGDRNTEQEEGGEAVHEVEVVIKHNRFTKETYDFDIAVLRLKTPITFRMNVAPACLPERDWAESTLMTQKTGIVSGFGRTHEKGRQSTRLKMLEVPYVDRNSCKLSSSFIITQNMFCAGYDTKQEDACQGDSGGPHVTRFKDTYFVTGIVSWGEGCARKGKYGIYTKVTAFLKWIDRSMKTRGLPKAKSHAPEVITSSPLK
fXa, sequence (P00742 41-179 partner limits assumed): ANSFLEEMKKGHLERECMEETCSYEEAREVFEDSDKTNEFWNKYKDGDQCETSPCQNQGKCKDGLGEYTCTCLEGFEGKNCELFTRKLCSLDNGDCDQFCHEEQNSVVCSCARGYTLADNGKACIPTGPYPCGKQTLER

fXIIa inhibition selectivity among the said fXIIa inhibitors (fXIIa): highest | inhibition of fXa (in words) (fXa): do not inhibit
Molecule: MutB: polypeptide comprising the sequence of infestin-4 mutant MutB (SEQ ID NO: 1), inhibition loop TRNFVA; high-selectivity fXIIa inhibitor (EVRNPCACTRNFVAVCGSDGKTYGNPCMLNCAAQTKVPGLKLVHEGRCQRSNVEQF; Infestin-4 mutant MutB)

inhibition of aPC (in words) (aPC): inhibits | Ki (factor XIIa): 0.001 µM | Ki (activated protein C): 20 µM
B1: corn trypsin inhibitor (other, UniProt P01088 29-138, looked up)
chain: SAGTSCVPGWAIPHNPLPSCRWYVTSRTCGIGPRLPWPELKRRCCRELADIPAYCRCTALSILMDGAIPPGPDAQLEGRLEDLPGCPREVQRGFAATLVTEAECNLATIS
notes: Isolated from corn; also called CTI
effect on fibrinolysis (fibrinolysis): can delay fibrinolysis
